These results are taken from patent publication US20180273635A1 (Zymeworks, published 2018).

The target in assay [1] is T1, Recombinant human HER2 (human, UniProt P04626 23-652).
T1 construct: extracellular domain; analyte of the SPR assays; also called HER2 ECD; ECD2 of HER2
As to the kind of experiment: SPR, variant captured on anti-human Fc, HER2 flowed, 25 C, post-SEC.
Procedure: (§1) The affinity towards HER2 ECD of the samples was measured by SPR on a Biacore T200 as follows. Between 2000 and 4000 RU of anti-human Fc injected at concentration between 5 and 10 μg/ml was immobilized on a CM5 chip using standard amine coupling. Antigen-binding constructs were captured on the anti-human Fc (injected at concentration at 0.51 microg/mL in PBST, 1 min at 10 microl/min) at response levels ranging from 120-270 RU. […] HER2 dilutions were analyzed in duplicates. Sensograms were fit globally to a 1: 1 Langmuir binding model, using the software provided with the Biacore T200. All experiments were conducted at 25° C.
(§2) The affinity of antigen-binding constructs in OA format was determined by SPR following protein A purification. […] Antigen-binding constructs in FSA format were purified by protein A affinity and SEC prior to assessment of affinity by SPR.

Assay [2] concerns the target T1, Recombinant human HER2. Put plainly: SPR, post-SEC; ratio to WT v10013.
Procedure: as §1, §2
For assay [3], the target named is T1, Recombinant human HER2. Put plainly: SPR, variant captured on anti-human Fc, HER2 flowed, 25 C, pre-SEC.
Procedure: as §1
The target of assay [4] is T1, Recombinant human HER2. As to the kind of experiment: SPR, pre-SEC; ratio to WT v10013.
Procedure: as §1, §2
Assay [5] addresses T2, HER2 expressed on the surface of cells (human, UniProt P04626 23-1255). As to the kind of experiment: cell-based or functional assay.
In assay [6] the target is T2, HER2 expressed on the surface of cells. As to the kind of experiment: flow cytometry on SKBR3 cells, n=1; B50 = concentration at 50% of Bmax.
Procedure: (§3) Binding of the test antigen-binding constructs to the surface of HER2+ cells was determined by flow cytometry. Cells were washed with PBS and resuspended in DMEM at 1×10⁵ cells/100 μl. 100 μl cell suspension was added into each microcentrifuge tube, followed by 10 μl/tube of the antigen-binding constructs. The tubes were incubated for 2 hr at 4° C. on a rotator. The microcentrifuge tubes were centrifuged for 2 min 2000 RPM at room temperature and the cell pellets washed with 500 μl media. Each cell pellet was resuspended in 100 μl of fluorochrome-labelled secondary antibody diluted in media to 2 μg/sample. The samples were then incubated for lhr at 4° C. on a rotator. After incubation, the cells were centrifuged for 2 min at 2000 rpm and washed in media. The cells were resuspended in 500 μl media, filtered, transferred to a tube containing 5 μl propidium iodide (PI) and analyzed on a BD LSR II flow cytometer according to the manufacturer's instructions. The B50 of the tested antigen-binding constructs was assessed by FACS with data analysis and curve fitting performed in GraphPad Prism. The experiment was carried out once (n=1) in SKBr3 cells, and twice (n=2) in SKOV3, MCF7, and BT-474 cells.
(§4) The experiment was performed once (n=1) in each cell line.
For assay [7] the target is unchanged. Put plainly: cell-based or functional assay. The source holds these as a separate data set.
The target is the same in assay [8]. Put plainly: flow cytometry on SKBR3 cells, n=1.
Procedure: as §3, §4
The target is the same in assay [9]. Put plainly: cell-based or functional assay. The source holds these as a separate data set.
The target is the same in assay [10]. As to the kind of experiment: flow cytometry on BT474 cells, n=1; B50 = concentration at 50% of Bmax.
Procedure: as §3, §4
The target is the same in assay [11]. Put plainly: cell-based or functional assay. The source holds these as a separate data set.
For assay [12] the target is unchanged. As to the kind of experiment: cell-based or functional assay. The source holds these as a separate data set.
Assay [13] shares this target. As to the kind of experiment: cell-based or functional assay. The source holds these as a separate data set.
Assay [14] has the same target. As to the kind of experiment: cell-based or functional assay. This is another data set of the same source.
Assay [15] has the same target. As to the kind of experiment: flow cytometry on MCF7 cells (low HER2), n=1; B50 = concentration at 50% of Bmax.
Procedure: as §3, §4
For assay [16] the target is unchanged. As to the kind of experiment: flow cytometry on MCF7 cells (low HER2), n=1.
Procedure: as §3, §4
For assay [17] the target is unchanged. Put plainly: flow cytometry on BT474 cells, n=1.
Procedure: as §3, §4
Assay [18] deals with T3, Recombinant human HER2 (human, UniProt P04626 23-652).
T3 construct: extracellular domain; Analyte of the SPR assays; also called HER2 ECD; ECD2 of HER2
As to the kind of experiment: SPR, Ka ratio to WT pertuzumab.
Procedure: as §1

The target in assay [19] is T3, Recombinant human HER2. Put plainly: SPR as in Example 3, average of three independent runs.
Procedure: as §1

B1: variant 12534 (antibody, human IgG1, kappa)
heavy: EVQLVESGGGLVQPGGSLRLSCAASGFTFADYTMDWVRQAPGKGLEWVADVNPNSGGSIYNQRVKGRFTLSVDRSKNTLYLQMNSLRAEDTAVYYCARNLGPSFYFDYWGQGTLVTVSSASTKGPSVFPLAPSSKSTSGGTAALGCLVKDYFPEPVTVSWNSGALTSGVHTFPAVLQSSGLYSLSSVVTVPSSSLGTQTYICNVNHKPSNTKVDKKVEPKSCDKTHTCPPCPAPELLGGPSVFLFPPKPKDTLMISRTPEVTCVVVDVSHEDPEVKFNWYVDGVEVHNAKTKPREEQYNSTYRVVSVLTVLHQDWLNGKEYKCKVSNKALPAPIEKTISKAKGQPREPQVYVYPPSRDELTKNQVSLTCLVKGFYPSDIAVEWESNGQPENNYKTTPPVLDSDGSFALVSKLTVDKSRWQQGNVFSCSVMHEALHNHYTQKSLSLSPG
light: not shown
chain: not shown
notes: also called v12534
Consider B1, for which the values for the Kd with Recombinant human HER2 [1] and with Recombinant human HER2 [3] were 2.8 nM and 2.4 nM, respectively. For the same molecule, the “Ka, mut/Ka, WT” value in the assay with Recombinant human HER2 [2] is 7.4; in the assay with Recombinant human HER2 [4], 8.3.

B2: variant 12611 (antibody, human IgG1, kappa)
heavy: EVQLVESGGGLVQPGGSLRLSCAASGFTFTDYTMDWVRQAPGKGLEWVADVNPNSGGSIYNQRFKGRFTLSVDRSKNTLYLQMNSLRAEDTAVYYCARNLGPSFYFDYWGQGTLVTVSSASTKGPSVFPLAPSSKSTSGGTAALGCLVKDYFPEPVTVSWNSGALTSGVHTFPAVLQSSGLYSLSSVVTVPSSSLGTQTYICNVNHKPSNTKVDKKVEPKSCDKTHTCPPCPAPELLGGPSVFLFPPKPKDTLMISRTPEVTCVVVDVSHEDPEVKFNWYVDGVEVHNAKTKPREEQYNSTYRVVSVLTVLHQDWLNGKEYKCKVSNKALPAPIEKTISKAKGQPREPQVYVYPPSRDELTKNQVSLTCLVKGFYPSDIAVEWESNGQPENNYKTTPPVLDSDGSFALVSKLTVDKSRWQQGNVFSCSVMHEALHNHYTQKSLSLSPG
light: not shown
chain: not shown
notes: OA pertuzumab variant, LC Y96A (Kabat); also called v12611
Regarding B2, the Kd with Recombinant human HER2 [1] and in the assay with Recombinant human HER2 [3] was 11 nM throughout. Also, the “Ka, mut/Ka, WT” value in the assay with Recombinant human HER2 [2] and with Recombinant human HER2 [4] was 1.8 each time.

B3: variant 12610 (antibody, human IgG1, kappa)
heavy: EVQLVESGGGLVQPGGSLRLSCAASGFTFADYTMDWVRQAPGKGLEWVADVNPNSGGSIYNQRFKGRFTLSVDRSKNTLYLQMNSLRAEDTAVYYCARNLGPSFYFDYWGQGTLVTVSSASTKGPSVFPLAPSSKSTSGGTAALGCLVKDYFPEPVTVSWNSGALTSGVHTFPAVLQSSGLYSLSSVVTVPSSSLGTQTYICNVNHKPSNTKVDKKVEPKSCDKTHTCPPCPAPELLGGPSVFLFPPKPKDTLMISRTPEVTCVVVDVSHEDPEVKFNWYVDGVEVHNAKTKPREEQYNSTYRVVSVLTVLHQDWLNGKEYKCKVSNKALPAPIEKTISKAKGQPREPQVYVYPPSRDELTKNQVSLTCLVKGFYPSDIAVEWESNGQPENNYKTTPPVLDSDGSFALVSKLTVDKSRWQQGNVFSCSVMHEALHNHYTQKSLSLSPG
light: not shown
chain: not shown
notes: OA pertuzumab variant, HC T30A (Kabat); also called v12610
In the case of B3, the Kd is 4.6 nM with Recombinant human HER2 [1] and 5.1 nM with Recombinant human HER2 [3]. The figures for the “Ka, mut/Ka, WT” value with Recombinant human HER2 [2] and with Recombinant human HER2 [4] were 4.5 and 3.9, respectively.

B4: Variant 12471 (antibody, human IgG1, kappa, name in Kabat numbering, V domains shown)
VH: EVQLVESGGGLVQPGGSLRLSCAASGFTFADYTMDWVRQAPGKGLEWVGDVNPNSGGSIYNQRFKGRFTFSVDRSKNTLYLQMNSLRAEDTAVYYCARNLGPSFYFDYWGQGTLVTVSS
VL: DIQMTQSPSSLSASVGDRVTITCKASQDVSIGVAWYQQKPGKAPKLLIYSASYRYTGVPSRFSGSGSGTDFTLTISSLQPEDFATYYCQQYYIYPATFGQGTKVEIKR
notes: Kabat numbering; also called v12471; FSA version of v9996
Consider B4, for which the “growth inhibition span (percentage of cells killed), MDA-MB-175 cells” value in [5] is 75%. Besides, the B50 in [6] is 6.6 nM. Further, in assay [7], the “growth inhibition IC50 (potency), BT474 cells + EGF” value was found to be 1 nM; the “growth inhibition span (percentage of cells killed), BT474 cells + EGF” value worked out at 27%; the “growth inhibition span ratio to WT, BT474 cells + EGF” value was 1.5 fold. In assay [8], the Bmax came out at 27000 MFI. Also, in [9], the “growth inhibition IC50 (potency), NCI-N87 cells, 5 days” value worked out at 1.8 nM; the “growth inhibition span (percentage of cells killed), NCI-N87 cells” value came out at 32%; the “increase in efficacy with respect to the WT, NCI-N87 cells” value turned out to be 1.9 fold; the “increase in potency with respect to the WT, NCI-N87 cells” value was found to be 5.1 fold. Further, the B50 in assay [10] came to 3.1 nM. Moreover, in [11], the “growth inhibition IC50 (potency), SKBR3 cells” value was determined as 0.12 nM; the “growth inhibition span (percentage of cells killed), SKBR3 cells” value came to 22%; the “growth inhibition span ratio to WT, SKBR3 cells” value is 1.3 fold. Besides, in assay [12], the “growth inhibition IC50 (potency), BT474 cells” value amounted to 0.31 nM; the “growth inhibition span (percentage of cells killed), BT474 cells” value came to 26%; the “growth inhibition span ratio to WT, BT474 cells” value was determined as 2.5 fold. In assay [13], the “growth inhibition IC50, BT474 cells + EGF, 6 days” value turned out to be 0.3 nM and the “growth inhibition IC50, BT474 cells, 6 days” value came to 0.1 nM. Further, in assay [14], the “growth inhibition IC50 (potency), SKBR3 cells, 5 days” value was found to be 0.1 nM. In assay [15], this molecule yielded a B50 of 1.2 nM. Further, the Bmax in assay [16] turned out to be 570 MFI. This molecule displayed a Bmax in assay [17] of 23000 MFI.

B5: Variant 4433 (antibody, name in Kabat numbering, V domains shown)
VH: EVQLVESGGGLVQPGGSLRLSCAASGFTFTDYTMDWVRQAPGKGLEWVADVNPNSGGSIYNQRFKGRFTLSVDRSKNTLYLQMNSLRAEDTAVYYCARNLGPSFYFDYWGQGTLVTVSS
VL: DIQMTQSPSSLSASVGDRVTITCKASQDVSIGVAWYQQKPGKAPKLLIYSASYRYTGVPSRFSGSGSGTDFTLTISSLQPEDFATYYCQQYYIYPFTFGQGTKVEIK
notes: also called literature pertuzumab variant
As for B5, in the assay with Recombinant human HER2 [18], the “SPR Ka, mut/Ka, WT” value came to 1.3 fold. The Kd with Recombinant human HER2 [19] is 10 nM.

B6: Variant 4432 (antibody, name in Kabat numbering, V domains shown)
VH: EVQLVESGGGLVQPGGSLRLSCAASGFTFTDYTMDWVRQAPGKGLEWVADVNPNSGGSIYNQRFKGRFTLSVDRSKNTLYLQMNSLRAEDTAVYYCARNLGPSFYFDYWGQGTLVTVSS
VL: DIQMTQSPSSLSASVGDRVTITCKASQDVSIGVAWYQQKPGKAPKLLIYSASYRYTGVPSRFSGSGSGTDFTLTISSLQPEDFATYYCQQYYIYPATFGQGTKVEIK
notes: as for B5
For B6, in the assay with Recombinant human HER2 [18], the “SPR Ka, mut/Ka, WT” value was 1.7 fold. Besides, the Kd in the assay with Recombinant human HER2 [19] turned out to be 7.7 nM.

B7: Variant 4431 (antibody, name in Kabat numbering, V domains shown)
VH: EVQLVESGGGLVQPGGSLRLSCAASGFTFTDYTMDWVRQAPGKGLEWVADVNPNSGGSIYNQRFKGRFTLSVDRSKNTLYLQMNSLRAEDTAVYYCARNLGPSFYFDYWGQGTLVTVSS
VL: DIQMTQSPSSLSASVGDRVTITCKASQDVSAGVAWYQQKPGKAPKLLIYSASYRYTGVPSRFSGSGSGTDFTLTISSLQPEDFATYYCQQYYIYPYTFGQGTKVEIK
notes: as for B5
For the molecule B7, the “SPR Ka, mut/Ka, WT” value with Recombinant human HER2 [18] is 3.9 fold. Further, the Kd in the assay with Recombinant human HER2 [19] was 5 nM.

B8: Variant 4434 (antibody, name in Kabat numbering, V domains shown)
VH: EVQLVESGGGLVQPGGSLRLSCAASGFTFADYTMDWVRQAPGKGLEWVADVNPNSGGSIYNQRFKGRFTLSVDRSKNTLYLQMNSLRAEDTAVYYCARNLGPSFYFDYWGQGTLVTVSS
VL: DIQMTQSPSSLSASVGDRVTITCKASQDVSIGVAWYQQKPGKAPKLLIYSASYRYTGVPSRFSGSGSGTDFTLTISSLQPEDFATYYCQQYYIYPYTFGQGTKVEIK
notes: as for B5
For B8, the “SPR Ka, mut/Ka, WT” value with Recombinant human HER2 [18] is 3.3 fold. Besides, the Kd with Recombinant human HER2 [19] is 4 nM.

B9: Variant 4436 (antibody, name in Kabat numbering, V domains shown)
VH: EVQLVESGGGLVQPGGSLRLSCAASGFTFTDYTMDWVRQAPGKGLEWVADVNPNSGGSIYNQRVKGRFTLSVDRSKNTLYLQMNSLRAEDTAVYYCARNLGPSFYFDYWGQGTLVTVSS
VL: DIQMTQSPSSLSASVGDRVTITCKASQDVSIGVAWYQQKPGKAPKLLIYSASYRYTGVPSRFSGSGSGTDFTLTISSLQPEDFATYYCQQYYIYPYTFGQGTKVEIK
notes: as for B5
For B9, in the assay with Recombinant human HER2 [18], the “SPR Ka, mut/Ka, WT” value worked out at 2.4 fold. In the assay with Recombinant human HER2 [19], the equilibrium dissociation constant (Kd) was 5.7 nM.

B10: Variant 4435 (antibody, V domains shown)
VH: EVQLVESGGGLVQPGGSLRLSCAASGFTFTDYTMDWVRQAPGKGLEWVADVNPNSGASIYNQRFKGRFTLSVDRSKNTLYLQMNSLRAEDTAVYYCARNLGPSFYFDYWGQGTLVTVSS
VL: DIQMTQSPSSLSASVGDRVTITCKASQDVSIGVAWYQQKPGKAPKLLIYSASYRYTGVPSRFSGSGSGTDFTLTISSLQPEDFATYYCQQYYIYPYTFGQGTKVEIK
notes: as for B5
As to B10, the “SPR Ka, mut/Ka, WT” value in the assay with Recombinant human HER2 [18] is 0.9 fold. Further, the Kd with Recombinant human HER2 [19] amounted to 15 nM.
